Measurements as given in US7226992B1, “Mutant Bcl-2 proteins and uses thereof” (Abbott Laboratories, priority 2000, dated 2007).
Residues, ends and D or L forms follow the SMILES beside them. Primed or numbered codes have the meaning given here. No end group written: not given here. *: point of attachment. 5FAM = O=C1OC2(c3ccc(O)cc3Oc3cc(O)ccc32)c2ccc(C(=O)*)cc21; FITC′ = fluorescein isothiocyanate

Target: mutant Bcl-2/iso1 protein (Bcl-2/iso1 residues 1-34, Bcl-xL loop residues 29-44, Bcl-2/iso1 residues 92-207; plasmid C) (human)
Experiment: fluorescence polarization, direct titration of the fluoresceinated peptide with Bcl-2
Conditions: not given

Point of comparison: 5FAM-AAAAAQRYGRELRRMSDEFVDSFKK [(5-FAM)-… (SEQ ID NO:17), fluorescein-labeled peptide probe (1)], Kd 20 nM. Against it:
- 5FAM-AAAAAQRYGRELRRMSDEFVDSKK [(5-FAM)-… (SEQ ID NO:18), fluorescein-labeled peptide probe (2)] — 2.5-fold higher, 50 nM
- {FITC′}-AAQRYGRELRRMSDEFVR [(FITC)-… (SEQ ID NO:19), fluorescein-labeled peptide probe (3)] — 5-fold higher, 100 nM

Target: T1, Bcl-2/iso1 (Homo sapiens, UniProt P10415, DEL35-91/INS34DVEENRTEAPEGTESE/R110G/T96A)
T1 construct: His tag (pET28b, thrombin-cleavable) (N, cleaved yes); made in house; host or cells: E. coli BL21(DE3)
Experiment: Competitive fluorescence polarization assay, peptide binding to Bcl-2/iso1
Conditions: not given
Experimental: A competitive fluorescence polarization assay was used to measure the affinity of various peptides for Bcl-2/iso1 (see Table 2) or Bcl-2/iso2 (see Table 3). Competitive assays were performed using one of the following three fluorescein-labeled peptides as a probe:
(§1) All titrations were automated by means of an Abbott clinical diagnostics instrument (IMx, FPIA mode) modified with a special protocol for performing titrations. A complete two-fold dilution series, comprised of twenty separate 2 mL samples, was obtained by delivering appropriate individual aliquots to the first seven tubes, aliquots from an intermediate diluted stock for the next seven, and one more intermediate dilution for the final six. […] The final DMSO concentration for all samples never exceeded 1%. Twenty 1.8 uL samples were prepared without fluoresceinatedpeptide and read as blanks. To each tube, 0.2 uL of a Bcl-2, fluoresceinatedpeptide mixture was added; the tubes were incubated for 5 min at 35° C., and then read for total intensity and polarization.

T1 sequence (P10415 with tags, fused parts or gaps with the stated changes): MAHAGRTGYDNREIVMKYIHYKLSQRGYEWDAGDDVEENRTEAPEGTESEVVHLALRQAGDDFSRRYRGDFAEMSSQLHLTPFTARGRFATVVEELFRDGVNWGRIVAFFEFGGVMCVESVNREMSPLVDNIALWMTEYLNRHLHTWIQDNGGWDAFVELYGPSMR

Point of comparison: NLWAAQRYGRELRRMSDEFVD [SEQ ID NO:36], Kd 2330 nM. Against it:
- NAWAAQRYGRELRRMSDEFVDSFKK [SEQ ID NO:22] — 31-fold lower, 75 nM
- NLAAAQRYGRELRRMSDEFVDSFKK [SEQ ID NO:23] — 60-fold lower, 39 nM
- AAAAAQRYGRELRRMSDEFVDSFKK [SEQ ID NO:17] — 31-fold lower, 74 nM
- ALWAAQRYGRELRRMSDEFVDSFKK [SEQ ID NO:21] — 11-fold lower, 211 nM
- NLWAAQRYGRELRRMSDEFVDSFAK [SEQ ID NO:28] — 19-fold lower, 123 nM
- NLWAAQRYGRELRRMSDEFVDSAKK [SEQ ID NO:27] — 5.9-fold lower, 397 nM
- QRYGRELRRMSDEFVDSFKK [SEQ ID NO:35] — 3.3-fold lower, 711 nM
- NLWAAQRYGREARRMSDEFVDSFKK [SEQ ID NO:33] — 3.2-fold higher, 7480 nM
- NLWAAQRYGRELRRMSAEFVDSFKK [SEQ ID NO:34] — 3.1-fold lower, 762 nM
- NLWAAQRYARELRRMSDEFVAAFKK [SEQ ID NO:32] — 13-fold lower, 186 nM
- NLPAAQRYGRELRRMSDEFVDSFKK [SEQ ID NO:31] — 43-fold lower, 54 nM
- NLWAAQRYGRELRRMSDEFVDAFKK [SEQ ID NO:26] — 90-fold lower, 26 nM
- NLWAGQRYGRELRRMSDEFVDSFKK [SEQ ID NO:25] — 22-fold lower, 105 nM
- NLWAAQRYGRELRRMSDEFVDSFKA [SEQ ID NO:29] — 110-fold lower, 22 nM
- NLWGAQRYGRELRRMSDEFVDSFKK [SEQ ID NO:24] — 15-fold lower, 159 nM
- GGGAAQRYGRELRRMSDEFVDSFKK [SEQ ID NO:30] — 37-fold lower, 63 nM

Target: T1, Bcl-2/iso1
Experiment: Fluorescence polarization titration of fluoresceinated probe peptides with Bcl-2/iso1
Type: binding
Conditions: not given
Experimental: (3) (FITC)-AAQRYGRELRRMSDEFVR(SEQ ID NO:19). The dissociation constants of these fluoresceinated peptides from Bcl-2/iso1 are ˜20 nM, ˜50 nM, and ˜100 nM, respectively.
as §1, with “The concentrations of the” for “The final”, “DMSO stock solutions of the peptide were 1–4 mM as determined by Trp absorbance (O.D. 280 nm), Tyr absorbance (O.D. 293), or amino acid analysis. […]” for “DMSO concentration for all samples never exceeded 1%.”, “polarization. […]” for “polarization.”
Steady state polarization data can be analyzed to extract the fractions of bound and free fluorescent ligand owing to the linear additivity of their anisotropy values, weighted by their respective fractional intensities (Lakowicz, JR. Principles of Fluorescence Spectroscopy. New York, N.Y.: Plenum Press (1983)). […]

Point of comparison: `CSCC[C@H](NC(=O)[C@H](CCCNC(=N)N)NC(=O)[C@H](CCCNC(=N)N)NC(=O)[C@H](CC(C)C)NC(=O)[C@H](CCC(=O)O)NC(=O)[C@H](CCCNC(=N)N)NC(=O)CNC(=O)[C@H](Cc1ccc(O)cc1)NC(=O)[C@H](CCCNC(=N)N)NC(=O)[C@H](CCC(N)=O)NC(=O)[C@H](C)NC(=O)[C@H](C)NC(=O)[C@H](C)NC(=O)[C@H](C)NC(=O)[C@H](C)NC(=O)c1ccc2c(c1)C(=O)OC21c2ccc(O)cc2Oc2cc(O)ccc21)C(=O)N[C@@H](CO)C(=O)N[C@@H](CC(=O)O)C(=O)N[C@@H](CCC(=O)O)C(=O)N[C@@H](Cc1ccccc1)C(=O)N[C@H](C(=O)N[C@@H](CC(=O)O)C(=O)N[C@@H](CO)C(=O)N[C@@H](CCCCN)C(=O)N[C@@H](CCCCN)C(=O)O)C(C)C` (5FAM-AAAAAQRYGRELRRMSDEFVDSKK-OH; C-terminus assumed), Kd ~50 nM. Against it:
- CSCC[C@H](NC(=O)[C@H](CCCNC(=N)N)NC(=O)[C@H](CCCNC(=N)N)NC(=O)[C@H](CC(C)C)NC(=O)[C@H](CCC(=O)O)NC(=O)[C@H](CCCNC(=N)N)NC(=O)CNC(=O)[C@H](Cc1ccc(O)cc1)NC(=O)[C@H](CCCNC(=N)N)NC(=O)[C@H](CCC(N)=O)NC(=O)[C@H](C)NC(=O)[C@H](C)NC(=O)[C@H](C)NC(=O)[C@H](C)NC(=O)[C@H](C)NC(=O)c1ccc2c(c1)C(=O)OC21c2ccc(O)cc2Oc2cc(O)ccc21)C(=O)N[C@@H](CO)C(=O)N[C@@H](CC(=O)O)C(=O)N[C@@H](CCC(=O)O)C(=O)N[C@@H](Cc1ccccc1)C(=O)N[C@H](C(=O)N[C@@H](CC(=O)O)C(=O)N[C@@H](CO)C(=O)N[C@@H](Cc1ccccc1)C(=O)N[C@@H](CCCCN)C(=O)N[C@@H](CCCCN)C(=O)O)C(C)C (5FAM-AAAAAQRYGRELRRMSDEFVDSFKK-OH) — 2.5-fold lower, ~20 nM

Target: mutant Bcl-2/iso2 protein (plasmid C construct with Ala96 to Thr96 and Gly110 to Arg110; plasmid D) (human)
Experiment: competitive fluorescence polarization, displacement of a fluorescein-labeled peptide probe from Bcl-2 (340 nM)
Conditions: not given

Point of comparison: GQVGRQLAIIGDDINR [peptide … (SEQ ID NO:37)], Kd 1600 nM. Against it:
- NLWAAQRYGRELRRMSDEFVDSFKK [peptide … (SEQ ID NO:20)] — 200-fold lower, 8 nM

Target: mutant Bcl-2/iso1 protein (Bcl-2/iso1 residues 1-34, Bcl-xL loop residues 29-44, Bcl-2/iso1 residues 92-207; plasmid C) (human)
Experiment: as above
Conditions: not given

Point of comparison: NLWAAQRYGREARRMSDEFVDSFKK [peptide … (SEQ ID NO:33)], Kd 7480 nM. Against it:
- NLWAAQRYGRELRRMSDEFVDSFAK [peptide … (SEQ ID NO:28)] — 61-fold lower, 123 nM
- NLWAAQRYGRELRRMSDEFVDSFKA [peptide … (SEQ ID NO:29)] — 340-fold lower, 22 nM
- NLWAAQRYGRELRRMSDEFVDSFKK [peptide … (SEQ ID NO:20)] — 530-fold lower, 14 nM
- ALWAAQRYGRELRRMSDEFVDSFKK [peptide … (SEQ ID NO:21)] — 35-fold lower, 211 nM
- NLWAAQRYGRELRRMSAEFVDSFKK [peptide … (SEQ ID NO:34)] — 9.8-fold lower, 762 nM
- NLWAAQRYARELRRMSDEFVAAFKK [peptide … (SEQ ID NO:32)] — 40-fold lower, 186 nM
- QRYGRELRRMSDEFVDSFKK [peptide … (SEQ ID NO:35)] — 11-fold lower, 711 nM
- NLWAAQRYGRELRRMSDEFVD [peptide … (SEQ ID NO:36)] — 3.2-fold lower, 2330 nM
- GGGAAQRYGRELRRMSDEFVDSFKK [peptide … (SEQ ID NO:30)] — 120-fold lower, 63 nM
- NLWAGQRYGRELRRMSDEFVDSFKK [peptide … (SEQ ID NO:25)] — 71-fold lower, 105 nM
- NLWAAQRYGRELRRMSDEFVDAFKK [peptide … (SEQ ID NO:26)] — 290-fold lower, 26 nM
- NLWAAQRYGRELRRMSDEFVDSAKK [peptide … (SEQ ID NO:27)] — 19-fold lower, 397 nM
- NLAAAQRYGRELRRMSDEFVDSFKK [peptide … (SEQ ID NO:23)] — 190-fold lower, 39 nM
- NLWGAQRYGRELRRMSDEFVDSFKK [peptide … (SEQ ID NO:24)] — 47-fold lower, 159 nM
- NAWAAQRYGRELRRMSDEFVDSFKK [peptide … (SEQ ID NO:22)] — 100-fold lower, 75 nM
- AAAAAQRYGRELRRMSDEFVDSFKK [peptide … (SEQ ID NO:17), not labeled] — 100-fold lower, 74 nM
- NLPAAQRYGRELRRMSDEFVDSFKK [peptide … (SEQ ID NO:31)] — 140-fold lower, 54 nM

System: not listed separately
Experiment: Isoelectric point of Bcl-2 / Bcl-xL proteins
Type: physicochemical, human
Conditions: pH at which the protein carries no net charge
Text: As used herein, the term “isoelectric point” (or pI) refers to the pH at which the protein carries no net charge. The isoelectric points of Bcl-2/iso1, Bcl-2/iso2, and Bcl-2/iso3 are about 7.0, 7.2 and 7.2, respectively. The mutant proteins of the present invention have an isoelectric point lower than that of wild-type Bcl-2 and preferably, in the range of 4.5 to about 6.0. More preferably, the isoelectric point of a mutant protein of the invention is from 4.5 to about 5.5. A more preferred isoelectric point is from about 5.0 to about 5.5. A most preferred isoelectric point is 5.0. Means for determining the isoelectric point of a protein are well known to those of ordinary skill in the art.

With “Bcl-2/iso2: wild-type human Bcl-2 protein isoform 2 (SEQ ID NO:4)” the isoelectric point was ~7.2.
